Source: patent publication US20240010749A1 (Merck KGaA, published 2024)

T1: human CEACAM5 expressed on cancer cell lines (MKN-45, NCI-H441, SNU-16, SK-CO-1, LS174T) (human, UniProt P06731 35-685)
T1 sequence: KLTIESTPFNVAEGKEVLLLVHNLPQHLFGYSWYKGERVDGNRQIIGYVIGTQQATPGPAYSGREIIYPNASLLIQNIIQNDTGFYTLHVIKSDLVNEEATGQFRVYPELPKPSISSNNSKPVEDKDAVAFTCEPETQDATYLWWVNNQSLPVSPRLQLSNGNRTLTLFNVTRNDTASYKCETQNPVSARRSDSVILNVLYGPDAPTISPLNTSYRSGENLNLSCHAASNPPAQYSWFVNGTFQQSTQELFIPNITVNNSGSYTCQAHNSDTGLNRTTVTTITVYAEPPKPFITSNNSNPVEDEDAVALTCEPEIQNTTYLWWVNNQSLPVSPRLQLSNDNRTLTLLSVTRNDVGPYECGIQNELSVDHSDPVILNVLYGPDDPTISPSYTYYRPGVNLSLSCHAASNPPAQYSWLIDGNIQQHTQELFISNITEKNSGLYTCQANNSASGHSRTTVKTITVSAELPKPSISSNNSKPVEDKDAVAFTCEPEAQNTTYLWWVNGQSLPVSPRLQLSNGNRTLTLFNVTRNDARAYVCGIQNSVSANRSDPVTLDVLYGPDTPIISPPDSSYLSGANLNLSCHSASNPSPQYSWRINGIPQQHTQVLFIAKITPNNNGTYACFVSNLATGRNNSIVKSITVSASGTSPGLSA

B1: ADC1 (mAb1-glucuronid-exatecan) (other)
heavy: EVQLQESGPGLVKPSQTLSLTCTVSDGSVSRGGYYLTWIRQHPGKGLEWIGYIYYSGSTYFNPSLRSRVTMSVDTSKNQFSLKLSSVTAADTAVYYCARGIAVAPFDYWGQGTLVTVSSASTKGPSVFPLAPSSKSTSGGTAALGCLVKDYFPEPVTVSWNSGALTSGVHTFPAVLQSSGLYSLSSVVTVPSSSLGTQTYICNVNHKPSNTKVDKRVEPKSCDKTHTCPPCPAPPVAGPSVFLFPPKPKDTLMISRTPEVTCVVVDVSHEDPEVKFNWYVDGVEVHNAKTKPREEQYNSTYRVVSVLTVLHQDWLNGKEYKCKVSNKALPSSIEKTISKAKGQPREPQVYTLPPSREEMTKNQVSLTCLVKGFYPSDIAVEWESNGQPENNYKTTPPVLDSDGSFFLYSKLTVDKSRWQQGNVFSCSVMHEALHNHYTQKSLSLSPG
light: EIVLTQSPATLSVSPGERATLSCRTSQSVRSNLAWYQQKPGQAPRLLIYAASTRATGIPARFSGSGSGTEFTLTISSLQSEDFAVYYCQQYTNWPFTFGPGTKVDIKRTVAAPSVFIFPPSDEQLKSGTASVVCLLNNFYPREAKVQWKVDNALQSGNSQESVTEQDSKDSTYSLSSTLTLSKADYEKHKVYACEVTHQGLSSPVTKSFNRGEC
modifications: exatecan attached through the glucuronide linker of DL1 (maleimide) to cysteines of reduced interchain disulfides; DAR 7.9
B2: ADC2 (mAb1-AAN-exatecan) (other)
heavy: B1 heavy
light: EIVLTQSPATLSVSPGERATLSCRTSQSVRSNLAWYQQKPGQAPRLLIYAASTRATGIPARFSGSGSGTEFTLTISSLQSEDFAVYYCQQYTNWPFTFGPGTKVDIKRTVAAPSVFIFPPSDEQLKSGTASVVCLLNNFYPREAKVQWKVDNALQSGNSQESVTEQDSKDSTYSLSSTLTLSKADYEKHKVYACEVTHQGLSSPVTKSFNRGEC
modifications: exatecan attached through the legumain-cleavable Ala-Ala-Asn linker of DL2 (maleimide) to cysteines of reduced interchain disulfides; DAR 7.6
B3: mAb1 (antibody, human IgG1, kappa)
heavy: B1 heavy
light: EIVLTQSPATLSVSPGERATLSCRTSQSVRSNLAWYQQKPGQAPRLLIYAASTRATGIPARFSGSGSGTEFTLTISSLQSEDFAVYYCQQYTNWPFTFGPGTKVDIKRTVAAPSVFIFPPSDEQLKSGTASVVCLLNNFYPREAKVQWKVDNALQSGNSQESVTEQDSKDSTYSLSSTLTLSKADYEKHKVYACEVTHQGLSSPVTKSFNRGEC
notes: Labelled with pHrodo in the internalization assay; also called so8G4
B4: hmn-14 (antibody, human IgG1, kappa, V domains shown)
VH: EVQLVESGGGVVQPGRSLRLSCSASGFDFTTYWMSWVRQAPGKGLEWIGEIHPDSSTINYAPSLKDRFTISRDNAKNTLFLQMDSLRPEDTGVYFCASLYFGFPWFAYWGQGTPVTVSS
VL: DIQLTQSPSSLSASVGDRVTITCKASQDVGTSVAWYQQKPGKAPKLLIYWTSTRHTGVPSRFSGSGSGTDFTFTISSLQPEDIATYYCQQYSLYRSFGQGTKVEIKR
notes: Known comparator antibody, human IgG; also called labetuzumab

Key:
[1] = target: T1, human CEACAM5 expressed on cancer cell …; assay: cell-based or functional assay
[2] = target: T1, human CEACAM5 expressed on cancer cell …; assay: cell-based or functional assay; remark: listed apart in the source
[3] = target: T1, human CEACAM5 expressed on cancer cell …; assay: cell binding on MKN45 cells, average of several experiments

Binder	IC50 [M], cell viability (CellTiter-Glo, 6 days), LS174T [1] [M]	IC50 [M], cell viability (CellTiter-Glo, 6 days), MKN-45 [1] [M]	IC50 [M], cell viability (CellTiter-Glo, 6 days), SK-CO-1 [1] [M]	IC50 [M], cell viability (CellTiter-Glo, 6 days), SNU-16 [1] [M]	fold higher potency than ADC SAR DM4 against SK-CO-1 cancer cells (cell viability) [2] [fold]	EC50 [3] [nM]
B1	3.8e-10	6.2e-10	8.5e-11	3.2e-10	2.9	–
B2	2.8e-10	4.7e-10	6.9e-11	2.8e-10	2.7	–
B3	–	–	–	–	–	10.4
B4	–	–	–	–	–	16
